Data from paper PMC9234029, “Voltammetric lipase activity assay based on dilinolein and a modified carbon paste electrode” (Analytical and Bioanalytical Chemistry, 2022).

Substrate: CCCCC/C=C\C/C=C\CCCCCCCC(=O)OCC(O)COC(=O)CCCCCCC/C=C\C/C=C\CCCCC
Assay: differential pulse voltammetry of released linoleic acid, CoPC/MWCNT carbon paste electrode
Format: biochemical, Sus scrofa
Details: sodium borate 0.1 M pH 9, room temperature, 25 min, Lineweaver-Burk plot, substrate in paraffin oil

B1: porcine pancreas lipase (PP-L) (Sus scrofa) (protein)
chain: SEVCFPRLGCFSDDAPWAGIVQRPLKILPWSPKDVDTRFLLYTNQNQNNYQELVADPSTITNSNFRMDRKTRFIIHGFIDKGEEDWLSNICKNLFKVESVNCICVDWKGGSRTGYTQASQNIRIVGAEVAYFVEVLKSSLGYSPSNVHVIGHSLGSHAAGEAGRRTNGTIERITGLDPAEPCFQGTPELVRLDPSDAKFVDVIHTDAAPIIPNLGFGMSQTVGHLDFFPNGGKQMPGCQKNILSQIVDIDGIWEGTRDFVACNHLRSYKYYADSILNPDGFAGFPCDSYNVFTANKCFPCPSEGCPQMGHYADRFPGKTNGVSQVFYLNTGDASNFARWRYKVSVTLSGKKVTGHILVSLFGNEGNSRQYEIYKGTLQPDNTHSDEFDSDVEVGDLQKVKFIWYNNNVINPTLPRVGASKITVERNDGKVYDFCSQETVREEVLLTLNPC
- Km: 290 µM
